Laboratory results: patent US7893027B2, “Treatment of ocular wounds and ulcers” (The Board of Regents of the University of Oklahoma, priority 2002, dated 2011)

Columns and labels:
[1] = tested on: human corneal epithelial cells (HCEC); test: CyQUANT cell proliferation assay; format: cell-based; conditions: for Increase in cell numbers: 72 hr post treatment
Method: Human corneal epithelial cells were seeded onto 48 well tissue culture plates (7.5×10^3 cells/well, FALCON, Franklin Lakes, N.J.) and cultured as described above.
Cultures were changed to growth factor-free basic medium overnight and treated with various concentrations of CAP37 (0-2000 ng/ml) for 48-72 hrs. Recombinant human Epidermal Growth Factor (EGF 50 ng/ml, BECTON DICKINSON, Bedford, Mass.) and recombinant human Hepatocyte Growth Factor/Scatter Factor (HGF/SF 20 ng/ml, BECTON DICKINSON) were used as positive controls and growth factor-free basic medium as negative control. The medium was aspirated and new medium with CAP37 or growth factors were added to the cultures every 24 hr. The CyQUANT Cell Proliferation Assay Kit (MOLECULAR PROBES, Eugene, Oreg.) was used to quantify cell proliferation exactly according to the manufacturer's specifications. Briefly, cells were frozen, thawed, and lysed with the addition of the lysis buffer containing the green fluorescent dye, CyQUANT GR which binds to nucleic acids and the fluorescence levels read on fluorescent micro plate reader (fmax MOLECULAR DEVICES, Sunnyvale, Calif.) with filters for 485 nm excitation and 538 nm emission.

ICAM-1 [2] = test: Flow cytometry of ICAM-1 expression on HCEC; format: cell-based, human; conditions: for Upregulation of ICAM-1: 1000 ng/ml
Method: Flow cytometry was used to assess the upregulation of ICAM-1 and VCAM-1 on HCEC in response to CAP37 treatment. HCEC were cultured as described above and treated with CAP37 (0-2000 ng/ml) for 0, 2, 6, 24, 48 and 72 hr. A corresponding culture was left untreated at each time point. Following treatment with CAP37, cells were detached with 5 mM EDTA (pH 7.4, Fisher Scientific), washed twice in PBS and fixed with 0.125% paraformaldehyde (J.T. Baker, Phillipsburg, N.J.) overnight at 4° C. The cells were washed in PBS and then incubated in 0.5% normal goat serum and 0.5% BSA in PBS for 30 min to block non-specific binding sites. For determination of ICAM-1 expression, cells were incubated in the primary antibody (FITC-labeled mouse anti-human ICAM-1, BIOSOURCE, Camarillo, Calif.) at 10^6 cells/10 μl at 4° C. for 1 hr. Cells were washed in PBS and analyzed by flow cytometry (FACSTAR, BECTON DICKINSON, San Jose, Calif.). For detection of VCAM-1 expression, cells were incubated with unlabeled primary antibody (monoclonal mouse anti human VCAM-1, ENDOGEN, Woburn, Mass. at 2 μg/10^6 cells) followed by FITC-labeled goat anti-mouse IgG (PHARMINGEN, San Diego, Calif.) at 5 μg/10^6 cells and incubated at 4° C. for 30 min. The isotype control for these studies was FITC-labeled mouse isotype IgG1 (PHARMINGEN). The positive control used in these studies was TNF-α (5 ng/ml). At least ten thousand cells were analyzed for each sample.

E-selectin = test: RT-PCR of adhesion molecule mRNA in HCEC; format: cell-based, human; conditions: CAP37 1 μg/ml, 0-24 hr
Method: (§1) Cultured HCEC were treated with CAP37 (1 μg/ml) for 0-24 hr at 37° C. Total cellular RNA was isolated from untreated and treated HCEC according to vendor specifications (TRIzol™, GIBCO BRL). After reverse-transcription of 5 μg of total RNA by SuperScript™ II RT (GIBCOBRL) the resulting single stranded cDNA was amplified by PCR (BIOMETRA TGRADIENT, Göttingen, Germany) using specific primers for ICAM-1 (([…] (SEQ ID NO:11) and […] (SEQ ID NO:12)); VCAM-1 (([…] (SEQ ID NO:13) and […] (SEQ ID NO:14)); PECAM-1 (([…] (SEQ ID NO:15) and […] (SEQ ID NO:16)); E-selectin (([…] (SEQ ID NO:17) and […] (SEQ ID NO:18)); and β-actin ((TACCTCATGAAGATCCTCA (SEQ ID NO:19) and TTCGTGGATGCCACAGGAC (SEQ ID NO:20))) synthesized by the Molecular Biology Resource Facility, University of Oklahoma Health Sciences Center. The thermocycler conditions for ICAM-1 and VCAM-1 were 95° C. for 5 min initially, with 30 cycles at 95° C. for 1 min, 58° C. for 45 sec, 72° C. for 1 min followed by a final extension at 72° C. for 7 min. The conditions for E-selectin were 95° C. for 5 min initially, with 30 cycles at 94° C. for 1 min, 58° C. for 1 min, 72° C. for 1 min followed by a final extension at 72° C. for 5 min. The conditions for PECAM-1 were 95° C. for 5 min initially, with 30 cycles at 95° C. for 45 sec, 60° C. for 1 min, 72° C. for 1 min followed by a final extension at 72° C. for 5 min.
(§2) Amplified DNA fragments were separated by electrophoresis on a 1% agarose gel and visualized by exposure to UV after ethidium bromide (0.5 μg/ml) staining. Expected sizes for ICAM-1, VCAM-1, PECAM-1, E-selectin and β-actin were 943 bp, 700 bp, 677 bp, 315 bp and 267 bp, respectively. To assess the integrity of the cDNA, primers for human β-actin were used.

ICAM-1 [3] = test: RT-PCR of adhesion molecule mRNA in HCEC; format: cell-based, human; conditions: CAP37 1 μg/ml, beginning at 2 hr and lasting through 24 hr
Method: as §1, §2

PECAM-1 = test: RT-PCR of adhesion molecule mRNA in HCEC; format: cell-based, human; conditions: CAP37 1 μg/ml
Method: as §1, §2

VCAM-1 = test: RT-PCR of adhesion molecule mRNA in HCEC; format: cell-based, human; conditions: CAP37 1 μg/ml, 0-24 hr
Method: as §1, §2

B1: CAP37: Cationic Antimicrobial Protein of Mr 37 kDa; recombinant protein from human 293 cells, identical to native PMN-derived CAP37 (SEQ ID NO:1) (protein, listed as Homo sapiens)
chain: IVGGRKARPRQFPFLASIQNQGRHFCGGALIHARFVMTAASCFQSQNPGVSTVVLGAYDLRRRERQSRQTFSISSMSENGYDPQQNLNDLMLLQLDREANLTSSVTILPLPLQNATVEAGTRCQVAGWGSQRSGGRLSRFPRFVNVTVTPEDQCRPNNVCTGVLTRRGGICNGDGGTPLVCEGLAHGVASFSLGPCGRGPDFFTRVALFRDWIDGVLNNPGP
[1]; 1000-2000 ng/ml, 48 hours
  Levels of proliferation relative to positive controls: comparable to those obtained with the two positive controls, EGF and HGF
[1]; 48 hours post treatment, versus culture medium alone
  Proliferation of HCEC: significant increase in proliferation over basal levels
[1]; 1000 ng/ml
  Increase in cell numbers: approximately two
[1]; 2000 ng/ml
  Increase in cell numbers: three
ICAM-1 [2]; 2 hr
  Upregulation of ICAM-1: no upregulation of ICAM-1 could be detected
ICAM-1 [2]; 6 hr
  Upregulation of ICAM-1: significant upregulation of ICAM-1
ICAM-1 [2]; 24 hr
  Upregulation of ICAM-1: still above the untreated levels
ICAM-1 [2]; 1000-2000 ng/ml, TNF-α 5 ng/ml as positive control
  ICAM-1 levels relative to positive control: comparable to those obtained with the positive control TNF-α
ICAM-1 [2]; HCEC, 6 hr, flow cytometry
  Concentration giving maximum upregulation of ICAM-1: 1000 to 2000 ng/mL
ICAM-1 [2]; concentrations between 10 and 500 ng/ml
  ICAM-1 levels: Lower, yet significant levels of ICAM-1
E-selectin
  mRNA expression of E-selectin: did not show increase in mRNA expression
ICAM-1 [3]
  ICAM-1 message: clear upregulation of ICAM-1 message
PECAM-1
  Time PECAM-1 message first detected after stimulation: 2 h
  Time of maximum PECAM-1 message: 4 h
PECAM-1; transient, not detected after 6 hr
  PECAM-1 message: upregulated
VCAM-1
  mRNA expression of VCAM-1: did not show increase in mRNA expression
